The values below come from patent US20110052582A1 (Hoffmann-La Roche, published 2011).

The target in the assay is T1, Soluble CDCP1 extracellular domain (CDCP1-ECD) (SEQ ID NO:30) fused to Streptavidin Binding Protein (SBP) (human, UniProt Q9H5V8 30-663).
T1 construct: also called SBP-CDCP1-ECD
T1 sequence: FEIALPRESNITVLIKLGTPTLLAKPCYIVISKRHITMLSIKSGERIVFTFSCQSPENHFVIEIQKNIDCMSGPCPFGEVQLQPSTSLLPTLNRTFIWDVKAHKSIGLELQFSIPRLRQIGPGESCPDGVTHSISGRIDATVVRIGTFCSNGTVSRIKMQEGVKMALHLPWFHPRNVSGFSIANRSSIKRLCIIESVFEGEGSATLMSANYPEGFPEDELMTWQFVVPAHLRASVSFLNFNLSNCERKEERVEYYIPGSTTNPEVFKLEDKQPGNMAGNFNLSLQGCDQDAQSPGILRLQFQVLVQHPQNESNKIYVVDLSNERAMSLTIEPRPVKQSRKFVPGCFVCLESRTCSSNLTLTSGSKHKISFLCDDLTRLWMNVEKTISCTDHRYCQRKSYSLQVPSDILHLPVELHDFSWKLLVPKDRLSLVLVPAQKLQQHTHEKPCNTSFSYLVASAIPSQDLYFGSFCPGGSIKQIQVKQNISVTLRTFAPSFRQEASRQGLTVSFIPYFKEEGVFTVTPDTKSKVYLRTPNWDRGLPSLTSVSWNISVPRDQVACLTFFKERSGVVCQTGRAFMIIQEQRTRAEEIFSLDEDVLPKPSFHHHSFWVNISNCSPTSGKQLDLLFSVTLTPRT
Put plainly: ELISA on captured SBP-CDCP1-ECD, ratio relative to chimeric CUB4 (chHC4). As to the method:
Soluble CDCP1 extracellular domain (CDCP1-ECD) (SEQ ID NO:30) fused to Streptavidin Binding Protein (SBP) was captured on a sreptavidine plate. To define optimal binding of the antibody to SBP-CDCP1-ECD, 384-well polystyrene plates (NUNC, streptavidin-coated) delivered by MicroCoat, Bernried, Germany (ID-No. 1734776-001) have been coated with pure and stepwise diluted HEK293 supernatant (in BSA/IMDM buffer: 100 mg/ml BSA Fraction V, Roche 10735078001, dissolved in Iscove's Modified Dulbeccos Medium). Using a calibration curve of mouse CUB4 antibodies the optimal dilution factor of the HEK293 supernatant in relation to the streptavidin binding capacity of the microtiter plate was identified. For the standard coating, SBP-CDCP1-ECD containing HEK293 supernatant was diluted (between 1:15 and 1:40) and incubated overnight at 2-8° C. (25 μl per well). Intensive washing of the microtiter plate is necessary to remove remaining unbound SBP-CDCP1-ECD.
Humanized CUB4 antibodies and/or reference antibody (chimeric (chHC4) CUB4 antibody comprising human constant region and mouse VH and VL of SEQ ID NO:1 and 2) were tested either undiluted or using a 12-step-dilution. 12.5 μl per well of each sample was incubated for 90 min at room temperature. After intensive washing using PBS-T (0.1% Tween 20 in PBS) 25 μl of either goat anti-human IgG antibodies coupled with HRP (Jackson ImmunoResearch, Code No: 109-036-098, dilution 1:10000) for human antibodies were added and incubated for 1 hour. After intensive washing the binding of the antibodies was detected with ABTS tablets (Roche Diagnostics GmbH, Cat. No.: 1112422). Absorbance at 405 nm/492 nm was measured using a standard photometer.

B1: hHC4-04 / hLC4-M (antibody, V domains shown)
VH: EVQLLESGGGLVQPGGSLRLSCAASGFTFNSYGMSWVRQAPGKGLEWVSTISSGGSYTYYPDSVKGRFTISRDNSKNTLYLQMNSLRAEDTAVYYCARHPDYDGVWFAYWGQGTLVTVSS
VL: EIVLTQSPATLSLSPGERATMSCGASSSVFYLHWYQQKPGLAPRLWIYDTSKLASGIPDRFSGSGSGTDFTLTISRLEPEDFAVYYCQQWNSNPPTFGGGTKVEIK
For B1, the relative binding ratio is 0.82.

B2: hHC4-I / hLC4-L (antibody, V domains shown)
VH: EVQLLESGGGLVQPGGSLRLSCAASGFTFNSYAMSWVRQAPGKGLEWVSAISSGGSYTYYADSVKGRFTISRDNSKNTLYLQMNSLRAEDTAVYYCAKHPDYDGVWFAYWGQGTLVTVSS
VL: EIVLTQSPATLSLSPGERATMSCRASSSVFYLHWYQQKPGQAPRLWIYDTSKLASGIPARFSGSGSGTDFTLTISSLEPEDFAVYYCQQWNSNPPTFGGGTKVEIK
Regarding B2, the relative binding ratio amounted to 0.11.

B3: hHC4-H / hLC4-J (antibody, V domains shown)
VH: EVQLVESGGGLVQPGGSLRLSCAASGFTFNSYGMSWVRQAPGKGLEWVATISSGGSYKYYVDSVKGRFTISRDNAKNSLYLQMNSLRAEDTAVYYCARHPDYDGVWFAYWGQGTLVTVSS
VL: EIVMTQSPATLSLSPGERATMSCRASSSVFYLHWYQQKPGQAPRLWIYDTSKLASGIPARFSGSGSGTDFTLTISSLQPEDFAVYYCQQWNSNPPTFGGGTKVEIK
notes: also called Humanized CUB4 Antibody No. 36
For B3, the relative binding ratio turned out to be 0.52.

B4: hHC4-H / hLC4-L (antibody, V domains shown)
VH: EVQLVESGGGLVQPGGSLRLSCAASGFTFNSYGMSWVRQAPGKGLEWVATISSGGSYKYYVDSVKGRFTISRDNAKNSLYLQMNSLRAEDTAVYYCARHPDYDGVWFAYWGQGTLVTVSS
VL: EIVLTQSPATLSLSPGERATMSCRASSSVFYLHWYQQKPGQAPRLWIYDTSKLASGIPARFSGSGSGTDFTLTISSLEPEDFAVYYCQQWNSNPPTFGGGTKVEIK
notes: also called Humanized CUB4 Antibody No. 58
As to B4, the relative binding ratio was found to be 0.44.

B5: hHC4-K2 / hLC4-I (antibody, V domains shown)
VH: EVQLVESGGGLVKPGGSLRLSCAASGFTFNSYGMSWVRQAPGKGLEWVSSISSGGSYTYYADSVKGRFTISRDNAKNSLYLQMNSLRAEDTAVYYCARHPDYDGVWFAYWGQGTLVTVSS
VL: EIVMTQSPATLSLSPGERATLSCRASSSVFYLSWYQQKPGQAPRLWIYDTSKLASGIPARFSGSGSGTDFTLTISSLQPEDFAVYYCQQWNSNPPTFGGGTKVEIK
For the molecule B5, the binding result is “no binding”.

B6: hHC4-I / hLC4-L2 (antibody, V domains shown)
VH: EVQLLESGGGLVQPGGSLRLSCAASGFTFNSYAMSWVRQAPGKGLEWVSAISSGGSYTYYADSVKGRFTISRDNSKNTLYLQMNSLRAEDTAVYYCAKHPDYDGVWFAYWGQGTLVTVSS
VL: EIVLTQSPATLSLSPGERATMSCSVSSSVFYLHWYQQKPGQAPRLWIYDTSKLASGIPARFSGSGSGTDFTLTISSLEPEDFAVYYCQQWNSNPPTFGGGTKVEIK
Take B6: the relative binding ratio came to 0.21.

B7: hHC4-07 / hLC4-I (antibody, V domains shown)
VH: EVQLLESGGGLVQPGGSLRLSCAASGFTFNSYAMSWVRQAPGKGLEWVSTISSGGSYTYYPDSVKGRFTISRDNSKNTLYLQMNSLRAEDTAVYYCAKHPDYDGVWFAYWGQGTLVTVSS
VL: EIVMTQSPATLSLSPGERATLSCRASSSVFYLSWYQQKPGQAPRLWIYDTSKLASGIPARFSGSGSGTDFTLTISSLQPEDFAVYYCQQWNSNPPTFGGGTKVEIK
B7: the binding result is “no binding”.

B8: hHC4-04 / hLC4-a (antibody, V domains shown)
VH: EVQLLESGGGLVQPGGSLRLSCAASGFTFNSYGMSWVRQAPGKGLEWVSTISSGGSYTYYPDSVKGRFTISRDNSKNTLYLQMNSLRAEDTAVYYCARHPDYDGVWFAYWGQGTLVTVSS
VL: EIVLTQSPATLSLSPGERATLSCSVSSSVFYVHWYQQKPGQAPRLLIYDTSKLASGIPARFSGSGSGTDFTLTISSLEPEDFAVYYCQQWNSNPPTFGGGTKVEIK
B8: the relative binding ratio turned out to be 0.39.

B9: hHC4-07 / hLC4-b (antibody, V domains shown)
VH: EVQLLESGGGLVQPGGSLRLSCAASGFTFNSYAMSWVRQAPGKGLEWVSTISSGGSYTYYPDSVKGRFTISRDNSKNTLYLQMNSLRAEDTAVYYCAKHPDYDGVWFAYWGQGTLVTVSS
VL: EIVLTQSPATLSLSPGERATLSCSVSSSVFYVHWYQQKPGQAPRLLIYDTSKLASGIPARFSGSGSGTDYTLTISSLEPEDFAVYYCQQWNSNPPTFGGGTKVEIK
With B9, the relative binding ratio is 0.07.

B10: hHC4-07 / hLC4-K (antibody, V domains shown)
VH: EVQLLESGGGLVQPGGSLRLSCAASGFTFNSYAMSWVRQAPGKGLEWVSTISSGGSYTYYPDSVKGRFTISRDNSKNTLYLQMNSLRAEDTAVYYCAKHPDYDGVWFAYWGQGTLVTVSS
VL: EIVLTQSPATLSLSPGERATLSCRASSSVFYLHWYQQKPGQAPRLWIYDTSKLASGIPARFSGSGSGTDFTLTISSLEPEDFAVYYCQQWNSNPPTFGGGTKVEIK
Consider B10, for which the relative binding ratio was determined as 0.1.

B11: hHC4-H / hLC4-I (antibody, V domains shown)
VH: EVQLVESGGGLVQPGGSLRLSCAASGFTFNSYGMSWVRQAPGKGLEWVATISSGGSYKYYVDSVKGRFTISRDNAKNSLYLQMNSLRAEDTAVYYCARHPDYDGVWFAYWGQGTLVTVSS
VL: EIVMTQSPATLSLSPGERATLSCRASSSVFYLSWYQQKPGQAPRLWIYDTSKLASGIPARFSGSGSGTDFTLTISSLQPEDFAVYYCQQWNSNPPTFGGGTKVEIK
Turning to B11, the binding result was “no binding”.

B12: hHC4-07 / hLC4-J (antibody, V domains shown)
VH: EVQLLESGGGLVQPGGSLRLSCAASGFTFNSYAMSWVRQAPGKGLEWVSTISSGGSYTYYPDSVKGRFTISRDNSKNTLYLQMNSLRAEDTAVYYCAKHPDYDGVWFAYWGQGTLVTVSS
VL: EIVMTQSPATLSLSPGERATMSCRASSSVFYLHWYQQKPGQAPRLWIYDTSKLASGIPARFSGSGSGTDFTLTISSLQPEDFAVYYCQQWNSNPPTFGGGTKVEIK
As to B12, the relative binding ratio worked out at 0.07.

B13: hHC4-K2 / hLC4-K (antibody, V domains shown)
VH: EVQLVESGGGLVKPGGSLRLSCAASGFTFNSYGMSWVRQAPGKGLEWVSSISSGGSYTYYADSVKGRFTISRDNAKNSLYLQMNSLRAEDTAVYYCARHPDYDGVWFAYWGQGTLVTVSS
VL: EIVLTQSPATLSLSPGERATLSCRASSSVFYLHWYQQKPGQAPRLWIYDTSKLASGIPARFSGSGSGTDFTLTISSLEPEDFAVYYCQQWNSNPPTFGGGTKVEIK
With B13, the relative binding ratio was determined as 0.3.

B14: hHC4-I / hLC4-I (antibody, V domains shown)
VH: EVQLLESGGGLVQPGGSLRLSCAASGFTFNSYAMSWVRQAPGKGLEWVSAISSGGSYTYYADSVKGRFTISRDNSKNTLYLQMNSLRAEDTAVYYCAKHPDYDGVWFAYWGQGTLVTVSS
VL: EIVMTQSPATLSLSPGERATLSCRASSSVFYLSWYQQKPGQAPRLWIYDTSKLASGIPARFSGSGSGTDFTLTISSLQPEDFAVYYCQQWNSNPPTFGGGTKVEIK
In the case of B14, the binding result was “no binding”.

B15: hHC4-I / hLC4-J (antibody, V domains shown)
VH: EVQLLESGGGLVQPGGSLRLSCAASGFTFNSYAMSWVRQAPGKGLEWVSAISSGGSYTYYADSVKGRFTISRDNSKNTLYLQMNSLRAEDTAVYYCAKHPDYDGVWFAYWGQGTLVTVSS
VL: EIVMTQSPATLSLSPGERATMSCRASSSVFYLHWYQQKPGQAPRLWIYDTSKLASGIPARFSGSGSGTDFTLTISSLQPEDFAVYYCQQWNSNPPTFGGGTKVEIK
In the case of B15, the relative binding ratio is 0.11.

B16: hHC4-04 / hLC4-b (antibody, V domains shown)
VH: EVQLLESGGGLVQPGGSLRLSCAASGFTFNSYGMSWVRQAPGKGLEWVSTISSGGSYTYYPDSVKGRFTISRDNSKNTLYLQMNSLRAEDTAVYYCARHPDYDGVWFAYWGQGTLVTVSS
VL: EIVLTQSPATLSLSPGERATLSCSVSSSVFYVHWYQQKPGQAPRLLIYDTSKLASGIPARFSGSGSGTDYTLTISSLEPEDFAVYYCQQWNSNPPTFGGGTKVEIK
Turning to B16, the relative binding ratio stood at 0.36.
